To fix the notation:
T1: GST-IQ, IQ motif of the CaV1.2 channel alpha1 subunit (UniProt O35505 1648-1668)
T1 construct: CaV1.2 calcium channel alpha1 subunit, IQ motif, a.a; 1648-1668, GenBank AB016287; also called IQ domain; source: E. coli BL21, purified (Glutathione Sepharose 4B)
T1 chain (looked up): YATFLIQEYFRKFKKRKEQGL

B1: Calpastatin (CAST) domain L (domain or fragment, UniProt P20810 3-148, looked up)
chain: PTETKAIPVSQQMEGPHLPNKKKHKKQAVKTEPEKKSQSTKLSVVHEKKSQEGKPKEHTEPKSLPKQASDTGSNDAHNKKAVSRSAEQQPSEKSTEPKTKPQDMISAGGESVAGITAISGKPGDKKKEKKSLTPAVPVESKPDKPS
notes: calpastatin (CAST) domain L (CSL), a.a; In the H2O2 experiments CSL was incubated with H2O2 present; The chemical change is not defined; also called CSL; source: E. coli BL21, purified (Glutathione Sepharose 4B), GST removed using PreScission protease
B2: GST-NT, N terminus of the CaV1.2 channel alpha1 subunit (domain or fragment, UniProt O35505 6-140, looked up)
chain: QPTTPAYRPLPSHLSADTEVRGRGTLVHEAQLNCFYISPGGSNYGSPRPAHANINANAAAGLAPEHIPTPGAALSWQAAIDAGRQAKLMGSAGNTTISTVSSTQRKRQQYGKPKKQSGTTATRPPRALLCLTLKN
notes: CaV1.2 calcium channel alpha1 subunit, N terminus (NT), a.a; 6-140, GenBank AB016287; source: E. coli BL21, purified (Glutathione Sepharose 4B)

What all share (settings): both partners purified
In assay [1] the target is B2. Kind of assay: pull-down; GST fusion (15 ug) with 10 uM CSL in 400 uL Tris buffer, 4 C, 4 h; [Ca2+] 10 uM, H2O2 0 M; Coomassie-stained gel quantified.
Assay [2] concerns the target T1, GST-IQ, IQ motif of the CaV1.2 channel …. The description is as above.
For assay [3], the target named is T2, GST-PreIQ, PreIQ motif of the CaV1.2 channel alpha1 subunit (UniProt O35505 1599-1639).
T2 construct: CaV1.2 calcium channel alpha1 subunit, PreIQ motif, a.a; 1599-1639, GenBank AB016287; source: E. coli BL21, purified (Glutathione Sepharose 4B)
T2 sequence (O35505 1599-1639): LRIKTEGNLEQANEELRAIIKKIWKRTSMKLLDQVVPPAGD
Described as above.

Assay [4] addresses T3, GST-CT1, proximal portion of the C terminus of the CaV1.2 channel alpha1 subunit (UniProt O35505 1509-1789).
T3 construct: CaV1.2 calcium channel alpha1 subunit, CT1 (proximal portion of CT), a.a; 1509-1789, GenBank AB016287; source: E. coli BL21, purified (Glutathione Sepharose 4B)
Described as above.

Assay [5] deals with B2. Briefly: pull-down; GST fusion (15 ug) with 10 uM CSL in 400 uL Tris buffer, 4 C, 4 h; [Ca2+] 10 uM, H2O2 10^-1 M; Coomassie-stained gel quantified.
The target of assay [6] is T1, GST-IQ, IQ motif of the CaV1.2 channel …. The description is as above.
Assay [7] concerns the target T2, GST-PreIQ, PreIQ motif of the CaV1.2 …. The description is as above.
Assay [8] addresses T3, GST-CT1, proximal portion of the C …. Described as above.
Assay [9] concerns the target B2. Kind of assay: pull-down; GST fusion (15 ug) with 10 uM CSL in 400 uL Tris buffer, 4 C, 4 h; [Ca2+] 10 uM, H2O2 10^-2 M; Coomassie-stained gel quantified.
In assay [10] the target is T1, GST-IQ, IQ motif of the CaV1.2 channel …. Described as above.
Assay [11] deals with T2, GST-PreIQ, PreIQ motif of the CaV1.2 …. The assay is described as above.
Assay [12] deals with T3, GST-CT1, proximal portion of the C …. The description is as above.
Assay [13] deals with B1. Briefly: pull-down; GST-NT (15 ug) incubated with CSL 0-30 uM for 4 h in 400 uL Tris buffer, [Ca2+] 1 mM; Coomassie-stained gel quantified; one-site fit, apparent Kd.
The target in assay [14] is B1. Briefly: pull-down; GST-NT (15 ug) incubated with CSL 0-30 uM for 4 h in 400 uL Tris buffer, [Ca2+] 10 uM; Coomassie-stained gel quantified; one-site fit, apparent Kd.
In assay [15] the target is B1. Briefly: pull-down; GST-NT (15 ug) incubated with CSL 0-30 uM for 4 h in 400 uL Tris buffer, [Ca2+] 25 nM; Coomassie-stained gel quantified; one-site fit, apparent Kd.

T3 sequence (O35505 1509-1789): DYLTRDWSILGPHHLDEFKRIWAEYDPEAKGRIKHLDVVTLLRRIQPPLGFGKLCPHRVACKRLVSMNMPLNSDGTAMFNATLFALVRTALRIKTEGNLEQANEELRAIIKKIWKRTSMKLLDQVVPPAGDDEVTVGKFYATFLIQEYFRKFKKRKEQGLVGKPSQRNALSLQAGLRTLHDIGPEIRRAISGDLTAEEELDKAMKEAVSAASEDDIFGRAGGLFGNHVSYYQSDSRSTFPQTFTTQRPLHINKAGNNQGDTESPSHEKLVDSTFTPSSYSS

For B1, the “binding density of CSL” value was 0.46 in assay [1]; 0.15 in [2]; 0.16 in assay [3]; 0.52 in assay [4]; 0.46 in assay [5]; 0.26 in assay [6]. Also, the “binding density of CSL” value in [7] is 0.16; in [8], 0.68; in [9] it was 0.46; in [10], 0.34; in assay [11], 0.16; in [12] it was 1.12.
In the case of B2, the Kd is 1320 nM in assay [13], 1480 nM in [14] and 1110 nM in assay [15].

The record behind these values is PMC10648788, “Ahf-Caltide, a Novel Polypeptide Derived from Calpastatin, Protects against Oxidative Stress Injury by Stabilizing the Expression of CaV1.2 Calcium Channel” (International Journal of Molecular Sciences, 2023).
